Experimental data from the DeepSol protein solubility set.

experiment: soluble on expression in E. coli; label from the status in PepcDB or PDB records

Soluble on expression in E. coli, soluble:
MREYRITAEEGHPRIDVFLAGRPEIGLSRSRIQALIDEGQVTLNGAMPKARQAVNPGDVIVVRVPDPEPMELVPEDIPLDIVYEDEDILVVNKQRGLVVHPAAGHWTGTLVHALLDKVDDLEGIGGELRPGIVHRLDKDTTGLLVVAKSERAMASLQEQIRDHMVQRVYWALVHGNSMPDTGRIEAPIGRHPRDRKRMAVNPKTGRDAVTYFRVLERYRGYALLECRLETGRTHQIRVHLSFIGHPVVGDPLYGPRKPHLGMPPQALHARQLSFRHPASGEWMEFTVDPPADMMAVVQRLREEA
MAKDPRYVGNLPKIGIRPTIDGRRKGVRESLEETTMNMAKAVAKLLEENVFYYNGQPVECVIADTCIGGVKEAAEAAEKFAREGVGVSITVTPCWCYGTETMDMDPHIPKAVWGFNGTERPGAVYLAAVLAGYNQKGLPAFGIYGKDVQDAGDTNIPEDVKEKLIRFAKAGLAVAMMKGKSYLSIGSVSMGIAGSVVQEDFFQNYLGMRNEYVDMSEFVRRIELGIYDKEEYERALKWVKENCKVGPDNNRDGFKRTEEQKEKDWEISVKMALIARDLMVGNKKLEEMGYGEEALGRNAIVAGFQGQRQWTDYFPNGDFMETILNSSFDWNGKRAPYIFATENDNLNGISMLFGYLLTNTAQIFADVRTYWSPEAVKRVTGYTLEGRAANGIIHLINSGAAALDGTGEQTKDGKPVIKPYYELTDEDIKKCLEATQFRPASTEYFRGGGYSTDFLTKGGMPVTISRLNIVKGLGPVLQIAEGYTVDLPEEVHDVLDKRTDPTWPTTWFVPNLTGEGAFKDVYSVMNNWGANHCSISYGHIGADLITLASILRIPVNMHNVPEEKIFRPDAWSMFGTKDLEGADYRACKKLGPIYK
LLPLRGLLVFPTMVLHLDVGRKKSVEALEHAMIDDHYILLAAQKEISIDEPIETDIYQIGTYAKVKQMLKLPNGTIRVLVEGLQRAKIEKYVANDAFIEVEMCTLPEDDEDNATENKALMRNVLQLFEQYIKLSKKVSAETLASVSDIAEPGRLADVIASHLPLKIVEKQQLLETTSVKERLLQV
MTKPLNTTQAVIEWVNNTRRYATRLDDEADALLAQLTLAAADESALNAACASHGCVGLYGYAQSAKAHLLTTLCGNENGKLEIITPDRDYDYFSHINPGHAPANMAIRFTRDIFSNESGWPLRLRLISEAELVQIFIAWTSSSPVCRQVEKSIITSRLEKWQSLRQPQPVPGVTAEEVATIASFWRSCLPSARQHIDDATWQHFASLLPALDLTTRAHAWALLWGEQPEITQQWLALAHMLQQTGHAGELAAPLSLLVDHFGLPAENFLTQMALTANDTQSDVVVHPVKEGRLLNAVSLSLDSLALLTRELVLSVENNVLDNVDLLDIPVAPDSHPHPLWRAKLGWMLAHYRQQVQPDVLVICNALASRSQTSTAAHHLLEWVNATQPQHESALPGVVWAITPQDARFATQQNLDEAVQQLMGKPGVHWGTLQALDKHSMQRLVEWLSQATSAPQRQARLQALREQLRGRVRDLLPMFDDARLPVETVIRRLQAQAARHGDLLAGLLPPVQNFEALLSTRQSREEQVCGLFNDAIDLFADEPTRASASEGHETGYQAHKMWINHLRQWAHCRDNAQRLGLEPQMLNAVAEILITASYRLGLPQQLQKTMQREEVSGAQLHAIIGNFIAWLGYANIEEAQRPASRVQKGAAIFAATPRSTMLRLTKLDEQPVHAASRYVYDWLVALYTLANENAGYRHPQDVTDVDRAQLIALIA
SGDKPPGFRGSRDWIGCVEASLCLAHFGGPQGRLCHVPRGVGLHGEVERLYSHFAGGGGPVMVGGDADARSKALLGVCVGSGTEAYVLVLDPHYWGTPKSPSELQAAGWVGWQEVSAAFDPNSFYNLCLTSLSSQQQQRTLD

Soluble on expression in E. coli, not soluble:
MFALPQAGDRRGEIIKVLLSNGWDYMNGLLTLGKVGEPQIPTPEVLTKILVELGPFYIKLGQLLSTRPDLLPPRYINALTALQSNVPPLPWSAIEDLLQREFPQPLGETFQEIESEPIAALEHHHHHH
MRYHGGLLLGAFDDDGKIIGMSFGYPGFRNGKLYLYSHMAGVVENKKYSNVGYSLKMKQRDLAASMGYDLIAWTFDPFNPLNAYFNISKLGAITRTYIKNFYGVMNDGINRGMRTDRVVAEWWINLQIDRNCEIIDFLNDVDRYSEISTIHESSCLGFYVPPDISYFHKYPDLGSKLKDAAFEVFNALFSKGYAIVAYKRGKSNYFVFKRIENLGKRIFDPIVK
MNRLERIIQLVSQKKKIDVNSLSEQLDVSKVTIRKDLDKLESKGLLRREHGYAVLNSGDDLNVRLSYNYNIKRRIAEKAAELVQDNDTIMIESGSTCALLAEVLCQTKRNIKVITNSCFIANYIRQYSSCQIILLGGYYQPNSEVTVGPLLKEMISLFHVNRVFVGTDGFNKDLGFMGKDMMRSEGVRYMADAAEEVVILTDSSKFSKTSLVHQLSLADVNRVITDQALDKQTQELLSASGLVLDFVSLEHHHHHH
MGSDKIHHHHHHMSTDFKKRNVFFSPPDMTETETRLVVEAIMSGWITTGPKTKEFEKKISAYVHTDKTVCLNSATAAMELALRLIGVGPEDEVIVPAYTYTASASVTQHVGCHLVMVDSNEENQQMDLQKLAEAITERTKVIVPVDLGGVVCEYDKILEILEQKKGLFRPTNELQKKIGRVIISSDCAHAFGSEWKGKMAGEIGDFSSFSFHAVKNLTTAEGGALTWHLPFGNEPIIMDIDTTIPVFEGETWNEFLYRKCQLFSLHGQNKDALAKTKLGSWEYDVIGPWYKCNMTDIMASLGLAQMERYDTMLQKRQKYVERFNEAFKELNVAVLDHKGAEHCSSHHLYIIRLLGKTREQVNDVITKMAERGIATNVHYKPLPMMTAYKTLGFDIKNFPNAYKMFENTMTLPLNTKMTEEDVEYVIENFVDIVKSL
MDILLTLLDDKTSVASDWRILGIISLRGSTPRLAILLQVVQWAAFYCWRNYMSPYKDKRWRSKRDTALRRDKYECRNCKRFGITTTATVVHHVWFLRDYPKWWLCLWNLISLCEKCHNKMHNRDSDIPTELGEYWQDKIKPPTSATKKYFLEHHHHHH
MSPAQSKPVESMTVFNTEEVDTKKQPMFFGKPLGVQRYDSYKYPVFDKLTQQQLGYFWRPEEVSLQKDRGDYQQLTPEQKHIFTSNLKYQIMLDSVQGRAPGMAFAPYCSLPELEGCINVWQFMEMIHSRSYTYIIKNVYSDPSEVFDTIIKDTNILQRAESVTKSYDDFVNDAHEYDSGNAWKFAREGHPAGTLDRRELKRKLYRAIANVNILEGIRFYVSFACSFAFGENKLMEGSAKILSLISRDESQHLVITQQILKKWADGDDPEMQEIAKEEKSFVKDMFRNTVNEEKAWADYLFKEGSMIGLNARLLNNYVEWIANRRMKAIGLDPIYDQPLRNNPLPWTEHWLNSKGQQNAPQETEIESYVIGGIKQDVKGDSFAGFKL
MSVQPETMPDSSNKTNPTVKEVIAYLADKFPLCFSIEGEAKPLKVGLSQDLAEALADDEKVSKTLLRQVLRSYTMSWRYLACCKANAQRIGLQGENVGIVDEAQAEHAAQSLAVAKEAYAARKAEQRKEQRKDFFKKKAREERNAKTMNKAVKKGSPKKDTFAKATAESLAVLTHKFSKGNK
MLSSSEKVAGQGVSGAYRELVRLLHRAAKDQLIVTENLPIEADVTHFHTIDFPYYLSTFQKKRSGRKIGYVHFLPATLEGSLKIPFFLKGIVKRYVFSFYNRMEHLVVVNPMFIEDLVAAGIPREKVTYIPNFVNKEKWHPLPQEEVVRLRTDLGLSDNQFIVVGAGQVQKRKGIDDFIRLAEELPQITFIWAGGFSFGGMTDGYEHYKKIMENPPKNLIFPGIVSPERMRELYALADLFLLPSYNELFPMTILEAASCEAPIMLRDLDLYKVILEGNYRATAGREEMKEAILEYQANPAVLKDLKEKAKNISREYSEEHLLQIWLDFYEKQAALGRK
MKNNAIGSNWKDVRAELFSKEEILESDMRVAIMSELIEARNEKGISQKKLEEMSGVSQPVIARMETGKTSPQLDTVLKVLASLGKTLAVVPLEHEQV
